Laboratory results from the DeepSol protein solubility set.

Experiment: soluble on expression in E. coli; label from the status in PepcDB or PDB records
In the case of “MAHHHHHHMTQQRGKKAAPSKAAVANASASAPDPPPFFSMGPATFTDAIVITKVISVVLPLRHLRDRNILHTTLLKKLLHRPYEASAEDLAQQQLSQQETDDGGKHDCGAHSALDNLAAPTSSSSSTPYVIVHIKSAEIHADTARQVNPRGDVQVNVMVTLVAARLQHGICAGVSEASPFTSCMQVRVPTVAVSAAVAARGSTDDAATLLLGDALEAGADNVSQEGVKDEKAEPSGGDTALDASVSATTTAAAAKRSCCTGIPADQQLRVTARCLEDEPIVPGQAVLLISEPAAMRCMGIRPPRAAPGSFYLTETTQPSAQFSSGEAEGGPEARPKKRARKSRASAGGTGGATPARRIVSIECAIPKREEDGEGGAAAGPRKGPRKRPHT”, the “soluble on expression in E. coli” value is reported as “not soluble”.
In the case of “MAHHHHHHMTTLPVLHLKATSLQNVTIAADLSDTTATLYTFLRSTPSAAETELALQPFLESLHAAPSSGRAALMRRPNHHLVQLLESVAVDGVFRCTPHVLPALARHSDRWLHRLGYASMDGEAANLTAVMDSSAHAASGSQRSASPPTAAPFPIMRVRATDMHQYVDPYSAYEADYLGRQEAARSSYVDASASGEARLPTNGSAAESGGLQHRDTTHPHEEASSVSAEVSALTAPGDEPQLSEPAPSASHAVTPAPTAALTSAPAIHPVLHLIANQVLQQQEEGEKTGRENAEERAHPSSSHAVLDEKLHRLMAQLNEAETQLTAAMAEKEATEQVWLPYYSRLKTSRVYVNELKSRLQSAASLYLLQRYERETLQQAHIGVAMESISLQLVLRDVRARLEDEQRSSLTDGHHQATESDRLAQQLSAVLGVPAAASQRNAACDRTN”, the “soluble on expression in E. coli” value is reported as “not soluble”.
With “MAHHHHHHMVAKRKEFELTKVIQEATFLTFKGLDTHDVYNCCVPFKISGTYHIFGRVERRSEWVNSHVRLFRKTGHDEYTLVEHAMQYQLEDPFLVKINNEALFGGVRVTKDHGKVSGYVCDFYRGKIDDLHYFTSGPQNMKDIRLVVLADGKIGVFSHHKTSNTCITGFTIIDSLDDLCSQVIDSAKPIDHTLFGDAWGGVNQPYLLSTGKIGCISHHGYLDTDAHGEVINVYCITSFVYQPSANKCYDYKILGTKNCFPDYPAKALKLIDCAFVSGIVMREDGKCDLYSGVGDTREGRMVIDYPFEGHGTIADDLDF” the “soluble on expression in E. coli” value was “not soluble”.
For “MAHHHHHHMVHWVISQFTTNVGLQQKSSIELLNEANREYESSSPFSVLVQHERAVERLTTAQRGLAASGAGSLARLDRDQLPSWTLRVIDEDCTMCFDNVTYASAVAADAGRSTNKTGHHKQKGLSVFATTSAPLGLMGPMLFAMASVTDDVDVAAELPRWQWVTWSYAQQRRFVHASQSRSTGERPRHLIVLGIPSTDQPMRYPLRDAQRATWLTYREVARTENNFTGALLQLYVFAAAEHDSEDSTHSAVDMVQLAPTVSEYAAATEQHLAVEAGDVNNAPPYLQRRVVLRDGWRDIPRSDDAVWRSPCAGVRTTVVTAASLVAGTSSLAALSAQLSLPVTPAFTAAAQYVCHVSAALWQEALHHRNSLWLDFLTDRKPTTKKKMGMSISWGIPTEVGMSQKTVLWLNYAYTAFPDVPYIMKGDDDMYLKVPQYLSDLRHVRGGWQKPRNLTVTIPHRGVIPPTLAIDDAEECLYRVWWTYSKKIAYGNGVGYILDRRLIQAALNPFDGFNALLMKLLTNPYDYRLEKEYLSLNMQYEDMHIGKQIRDHHDAVERFCPKKRVCYMADRRFRAHQILRPKPVKLTWISVMAHFGMPAIPYYVHYFHKNEFKVAEEAKRLIAQGIDAKTIEENATQRMHEWVASQVPSTLVGLGASFHLDWVRGDPHTAYTVAEEDEVAVYDVRYKLRRRNDVACVLESGKR”, the “soluble on expression in E. coli” value was “not soluble”.
With “MAHHHHHHMVMNDITKSDTHERKDEVTMDKGGMFNNFFECMNEQMKRIDRYHEDMSRMMNSMRTHYFSDELSKYFPSRRSLLDYDLGDARRNDLFFGKPQFLMDRFKNVPPMDVVDKDKEIEIKIDVPGLSKDNVQINLYNRNLEVSGDFKKTEETRDDEQRYYVKERSQTSFYRSFQLPENVCEDNIKATFKDGVLKIDIPKKDVLPEKKKKIEIQ” the “soluble on expression in E. coli” value was “soluble”.
For “MAHHHHHHMYVRSISKELTKRMYNPSGHRIMMMDLKNKTTNNILNSRRYIVSYTKVHRTHYLEDYYTNPEIATNMISPMSEYIWWSWLLLQVN”, the “soluble on expression in E. coli” value was “not soluble”.
For “MAHHHHHHNQQNKKVEGGYECKYCTFQTPDLNMFTFHVDSEHPNVVLNSSYVCVECNFLTKRYDALSEHNLKYHPGEENFKLTMVKRNNQTIFEQTINDLTF”, the “soluble on expression in E. coli” value was “soluble”.
With “MAHHHHHHSAARRRASGENLQQTRPIAAANLQWESYAEALEHSKQDHKPIGLFFTGSDWCMWCIKMQDQILQSSEFKHFAGVHLHMVEVDFPQKNHQPEEQRQKNQELKAQYKVTGFPELVFIDAEGKQLARMGFEPGGGAAYVSKVKSALKLR” the “soluble on expression in E. coli” value was “soluble”.
In the case of “MAHHHHHHSLKQKNAYNRLTNHYDDVLTGRKWWSWLYMHCLWKTDDNIIAGSVLDMIPGNFEGRILDVPVGTAIFTYDKYRRMPQAEIVGLDYSQEMLDIAAMRFSAEQITNVSLRQGDVGSLPFPDAAFDLVLSMNGFHVFPDKDRAFAETFRVLRGGGLFCGCFYVKGERKPADWFVRKFLDKKGLFRPPHYTREEAIEKLRSLYGDNVEIQDARSLLVFKCTKPREG”, the “soluble on expression in E. coli” value is reported as “soluble”.
For “MAHHHHHHSLSDLKIARIDVFQVDLPYSGGVYYLSAGREYRSFDATIVRITTDTGIEGWGESTPFGSNYIASHPRGVRAGIATMAPSLIGLDPRRVDRINDAMDDALLGHEDAKTAIDVACWDIFGKSVGLPVCELLGGRTNTRLPLISSIYVGEPEDMRARVAKYRAKGYKGQSVKISGEPVTDAKRITAALANQQPDEFFIVDANGKLSVETALRLLRLLPHGLDFALEAPCATWRECISLRRKTDIPIIYDELATNEMSIVKILADDAAEGIDLKISKAGGLTRGRRQRDICLAAGYSVSVQETCGSDIAFAAIVHLAQTIPERSLRCILECRDMVTVKTADGAFDIQDGFATAPTTPGLGIMPRLDVLGEAVASYF”, the “soluble on expression in E. coli” value was “soluble”.
In the case of “MAHNNYLDLEMLFNECNAQHYENLGMFFKWLQQFAAHHEDPKITIKDFKGDKTSGEMILHVNTFTLFKYRQEFDMKVSALNDNGLGWKILFVDRSLGCN”, the “soluble on expression in E. coli” value is reported as “not soluble”.
For “MAIEIKVPDIGADEVEITEILVKVGDKVEAEQSLITVEGDKASMEVPSPQAGIVKEIKVSVGDKTQTGALIMIFDSADGAADAAPAQAEEKKEAAPAAAPAAAAAKDVNVPDIGSDEVEVTEILVKVGDKVEAEQSLITVEGDKASMEVPAPFAGTVKEIKVNVGDKVSTGSLIMVFEVAGEAGAAAPAAKQEAAPAAAPAPAAGVKEVNVPDIGGDEVEVTEVMVKVGDKVAAEQSLITVEGDKASMEVPAPFAGVVKELKVNVGDKVKTGSLIMIFEVEGAAPAAAPAKQEAAAPAPAAKAEAPAAAPAAKAEGKSEFAENDAYVHATPLIRRLAREFGVNLAKVKGTGRKGRILREDVQAYVKEAIKRAEAAPAATGGGIPGMLPWPKVDFSKFGEIEEVELGRIQKISGANLSRNWVMIPHVTHFDKTDITELEAFRKQQNEEAAKRKLDVKITPVVFIMKAVAAALEQMPRFNSSLSEDGQRLTLKKYINIGVAVDTPNGLVVPVFKDVNKKGIIELSRELMTISKKARDGKLTAGEMQGGCFTISSIGGLGTTHFAPIVNAPEVAILGVSKSAMEPVWNGKEFVPRLMLPISLSFDHRVIDGADGARFITIINNTLSDIRRLVM”, the “soluble on expression in E. coli” value was “soluble”.
With “MAIFRDQAENHVEHDRSIEDRRRHRQLVEKSIKENLGDILSEESIIGETKNKKYKIPIRGIKEYQFIYGANNKGVTTGTGEERRGDRISSDKRKAISNNKAGNQEGKDIYETEITLEELMDYIVEDLDLPNLDRKKYSEIIVESAAKKRGYQKYGVRPRLAKKKTVMCKIARKQGKKRALREIGEEAEIGRFPFREDDLRYYKVKKHPKKESNAVMIFIMDVSGSMDNTKKYLARSFFFVLSRFIRRKYNNVAFEFISHTTTAKNVNEYEFFHKGESGGTYISSGINAAIDLIKEKYNPGVWNIYPFYASDGDNWSEDNEKAMEAVNEISDLSNMFGYIELLPSTYSTTMFYRFKKEISKENFVSVTVKEKKDLWNAIKYMLSEELQEKNKELEHHHHHH” the “soluble on expression in E. coli” value was “not soluble”.
For “MAIKGLEQAVENLSRISRTAVPGAAAMAINRVASSAISQSASQVARETKVRRKLVKERARLKRATVKNPQARIKVNRGDLPVIKLGNARVVLSRRRRRKKGQRSSLKGGGSVLVVGNRRIPGAFIQQLKNGRWHVMQRVAGKNRYPIDVVKIPMAVPLTTAFKQNIEQIRRERLPKELGYALQHQLRMVIKR”, the “soluble on expression in E. coli” value was “not soluble”.
With “MAILAFDLGGSSVKYGVWTGKELTNQGSFPTPGSWEEMKAHLYSVYADKRNESISGVAFSSPGVVDEKSQQILGISAIPYIHHFNIYEELEALFGLPVTIENDANCAGLAEIYEGAAKGKKEVLFVVIGTGIGGAIFRNGELYKGAHLYGGEFGLNFLSNGQTFSEIGTAVKMAQRYCERIGVEKQAVTGEEVFELAQRGDEIAREEVNNFYDYLTQGLFGLQFSYDPEMIVLGGGVSAKEGLLAEINRRMLTHLQTFELKDFVPEIVTCHYQNDANLIGAAANFQAKTNWEL” the “soluble on expression in E. coli” value was “not soluble”.
For “MAILQIGAGGVGWVVAHKAAQNNDVLGDITIASRTVGKCEKIIESIQKKNNLKDSTKKLEARAVNADDVDSLVALIEEVKPDLVINAGPPWVNMPIMEACYRAKVSYLDTSVAVDLCSEGQQVPEAYDWQWGYREKFEE”, the “soluble on expression in E. coli” value was “not soluble”.
For “MAIPKLQSYALPTALDIPTNKVNWAFEPERAALLIHDMQDYFVSFWGRNCPMMDQVIANIAALRQYCKEHHIPVYYTAQPKEQSDEDRALLNDMWGPGLTRSPEQQKVVEALTPDEADTVLVKWRYSAFHRSPLEQMLKDTGRNQLIITGVYAHIGCMTTATDAFMRDIKPFMVADALADFSREEHLMALNYVAGRSGRVVMTESLLPTPVPASKAALRALILPLLDETDEPLDDENLIDYGLDSVRMMGLAARWRKVHGDIDFVMLAKNPTIDAWWALLSRGVE”, the “soluble on expression in E. coli” value was “not soluble”.
For “MAIQLSKGQRIDLTKTNPGLTKAVIGLGWDTNKYSGGHDFDLDASAFLVDAHDNCVNDLDFVFYNNLEHPSGGVIHTGDNRTGEGDGDDEQIIVDFSKIPAHIEKIGITVTIHDAEARSQNFGQVSNAFVRVVDEETQNELLRFDLGEDFSIETAVVVCELYRHGGEWKFNAIGSGFSGGLAALCRNYGLQVLEHHHHHH”, the “soluble on expression in E. coli” value was “soluble”.
With “MAISGVTLEESVRGAIDDLRMKKSRYVMMCIGADGKKIEVTEVGERSVNYTDLKEKFSTEKPCYVAFDFEYNDAGSKREKLILIQWIPDTARPREKMMYSASRDALSSVSEGYLPIQANDESGLDAEEIIRKVRLHRSVAAALE” the “soluble on expression in E. coli” value was “soluble”.
In the case of “MAISVFDMFKIGIGPSSSHTVGPMRAGALFVTELRNQNRLHSVERIEVRLYGSLSATGIGHGSDRATVMGLMGEWPDQIDPSQVNQRIDALRADNQLMLAGEQAITFVWERDMCLLDESLPYHPNGMTLCAYGKTGEVHEQTYYSVGGGFVIDAEQAASGV”, the “soluble on expression in E. coli” value is reported as “not soluble”.
With “MAITLKTYAYTINRVLYFHTFVKFLFSNLVSFDTFEEIGNDVAVIVFLEHSFTRSHEKRHVCRESLLLSSCNNKLSRIHGLSERISKRYQKPSRGDIVVIRSPENPNKTPIKRVVGVEGDCISFVIDPVKSDESQTIVVPKGHVFVQGDYTHNSRDSRNFGPVPYGLIQGRVLWRDNTTGIVTQVVLDTALLRETTNGLRIKTYQGGSGYVQGIRFTNVEMQDTSAVKISHIMYRNITKSAKAIKFACSDTVPCSHIVLNNVNLEGKDGQVEAYCNSAEGFGYGVYSHNDKGLDQTHKSEEAETGHDEL” the “soluble on expression in E. coli” value was “soluble”.
In the case of “MAKERALTLEALRVMDAIDRRGSFAAAADELGRVPSALSYTMQKLEEELDVVLFDRSGHRTKFTNVGRMLLERGRVLLEAADKLTTDAEALARGWETHLTIVTEALVPTPAFFPLIDKLAAKANTQLAIITEVLAGAWERLEQGRADIVIAPDMHFRSSSEINSRKLYTLMNVYVAAPDHPIHQEPEPLSEVTRVKYRGIAVADTARERPVLTVQLLDKQPRLTVSTIEDKRQALLAGLGVATMPYPMVEKDIAEGRLRVVSPESTSEIDIIMAWRRDSMGEAKSWCLREIPKLFNGK”, the “soluble on expression in E. coli” value is reported as “soluble”.
